Drawing on paper PMC6946681, “The gastrointestinal pathogen Campylobacter jejuni metabolizes sugars with potential help from commensal Bacteroides vulgatus” (Communications Biology, 2020), this text covers stoichiometry N, Km and kcat for two substances.

Series [1] deals with Campylobacter jejuni FucX (Cj0485), C-terminally six-histidine tagged (Campylobacter jejuni NCTC11168). In words: crystal structure; FucX pre-incubated with excess NADP+, space group P1, four monomers in the asymmetric unit; 23-26% PEG 4000, 0.08 M Tris pH 8.5, 0.15 M MgCl2, 20% glycerol; 2.15 Å.
For series [2] the target is unchanged. In words: crystal structure; apo FucX, space group C222(1), two monomers in the asymmetric unit, tetramer generated by the crystallographic lattice; crystals grown at 18 °C in 3.4 M 1,6-hexanediol, 0.1 M Tris pH 8.5, 0.2 M MgCl2; 1.60 Å.
The subject of series [3] is C[C@@H]1OC(O)[C@@H](O)[C@H](O)[C@@H]1O. Briefly: purified protein. As to conditions: NADP+ in excess, 50 mM Tris-HCl pH 7.5, 1 mM Mg2+, room temperature.
The test system of series [4] is NC(=O)c1ccc[n+]([C@@H]2O[C@H](COP(=O)(O)OP(=O)(O)OC[C@H]3O[C@@H](n4cnc5c(N)ncnc54)[C@H](O)[C@@H]3O)[C@@H](O)[C@H]2O)c1. In words: purified protein. As to conditions: L-fucose in excess, 50 mM Tris-HCl pH 7.5, 1 mM Mg2+, room temperature, varied: cofactor.
Series [5] deals with NC(=O)c1ccc[n+]([C@@H]2O[C@H](COP(=O)(O)OP(=O)(O)OC[C@H]3O[C@@H](n4cnc5c(N)ncnc54)[C@H](OP(=O)(O)O)[C@@H]3O)[C@@H](O)[C@H]2O)c1. Briefly: purified protein. As to conditions: L-fucose in excess, 50 mM Tris-HCl pH 7.5, 1 mM Mg2+, room temperature, varied: cofactor.
For series [6], the system named is OC1OC[C@@H](O)[C@@H](O)[C@@H]1O. Briefly: purified protein. As to conditions: NADP+ in excess, 50 mM Tris-HCl pH 7.5, 1 mM Mg2+, room temperature.

Regarding “Campylobacter jejuni FucX (Cj0485), C-terminally six-histidine tagged (enzyme)”, the stoichiometry N in series [1] and in series [2] was 4 each time.

“FucX (Cj0485) (Campylobacter jejuni subsp. jejuni NCTC 11168 = ATCC 700819)”: the Km in series [3] turned out to be 233.8 ± 26.2 µM; in series [4], 6050 ± 1080 µM; in series [5], 9.9 ± 1.9 µM; in series [6] it was 672.2 ± 82.8 µM. The turnover number (kcat) in series [3] was determined as 26.3 ± 0.7 s⁻¹; in series [4] it was 20.5 ± 2.1 s⁻¹; in series [5] it was 16.5 ± 0.7 s⁻¹; in series [6], 18.9 ± 0.8 s⁻¹.

Usually stoichiometry N stands for a count of units in the complex or per binding partner. Usually Km stands for the concentration of substrate that gives half-maximal velocity. Usually kcat stands for the maximal rate divided by the concentration of active sites.
